This test deals with P. falciparum circumsporozoite protein (CSP) (Plasmodium falciparum) (UniProt P19597). Briefly: cell-based or functional assay.
Sequence of UniProt P19597 (P19597 19-374): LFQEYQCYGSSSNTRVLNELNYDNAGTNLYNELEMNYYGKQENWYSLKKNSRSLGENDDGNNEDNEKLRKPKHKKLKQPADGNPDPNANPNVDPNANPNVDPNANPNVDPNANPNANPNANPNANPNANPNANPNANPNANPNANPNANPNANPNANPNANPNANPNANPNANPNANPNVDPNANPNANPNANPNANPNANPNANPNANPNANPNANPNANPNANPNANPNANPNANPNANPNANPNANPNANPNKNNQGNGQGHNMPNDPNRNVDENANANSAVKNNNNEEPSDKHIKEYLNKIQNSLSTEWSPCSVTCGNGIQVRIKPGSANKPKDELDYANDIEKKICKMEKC

Turning to monoclonal antibody 2A10, the in vitro liver invasion assay: parasite burden in liver cells against the pre-immune control serum is above 2 log.

For the origin of these results see US20200368341A1.
